# Data published in patent US20060002969A1.
# Biological target: human matrix metalloproteinase-9 (MMP-9) (human) (UniProt P14780)
# Test: cell-based or functional assay
# Chain of UniProt P14780 (P14780 107-707 Q279R/R574P limits assumed): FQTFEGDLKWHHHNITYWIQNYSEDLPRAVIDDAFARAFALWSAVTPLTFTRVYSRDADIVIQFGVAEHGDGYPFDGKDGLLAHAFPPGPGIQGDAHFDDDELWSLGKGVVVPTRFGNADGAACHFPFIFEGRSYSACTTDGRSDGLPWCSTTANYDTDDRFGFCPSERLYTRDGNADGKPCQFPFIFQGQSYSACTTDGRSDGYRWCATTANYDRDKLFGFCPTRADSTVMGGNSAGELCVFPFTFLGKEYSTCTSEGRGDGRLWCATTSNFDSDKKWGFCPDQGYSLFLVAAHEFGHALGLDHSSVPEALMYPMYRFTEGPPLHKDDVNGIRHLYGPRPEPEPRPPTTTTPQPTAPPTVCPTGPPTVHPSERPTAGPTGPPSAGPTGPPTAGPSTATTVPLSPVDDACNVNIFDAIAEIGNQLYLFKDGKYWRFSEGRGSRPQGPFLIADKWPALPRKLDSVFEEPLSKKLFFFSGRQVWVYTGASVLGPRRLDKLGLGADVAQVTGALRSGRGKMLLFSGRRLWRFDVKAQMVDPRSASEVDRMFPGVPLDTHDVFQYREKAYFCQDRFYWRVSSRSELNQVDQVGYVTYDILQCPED
substance,measurement,value
anti-human MMP-9 monoclonal antibody (raised in mouse) obtained from Chemicon International (catalog number MAB13415),FBGC formation from human monocytes induced with IL-4 and GM-CSF (FBGC/high power field) (FBGC/high power field),3.7
same,fraction of cells fused,9.8%
